Patent US20190225689A1 (Janssen / Centocor, published 2019)

Molecular target: T1, human programmed cell death protein 1, PD-1 (human, UniProt Q15116 25-288)
T1 construct: In the assay it was the endogenous PD-1 on circulating CD3+ T cells of treated patients; also called CD279; PDCD1
Assay: PD-1 receptor occupancy by flow cytometry on circulating CD3+ T cells of dosed patients

T1 sequence (Q15116 25-288 limits assumed): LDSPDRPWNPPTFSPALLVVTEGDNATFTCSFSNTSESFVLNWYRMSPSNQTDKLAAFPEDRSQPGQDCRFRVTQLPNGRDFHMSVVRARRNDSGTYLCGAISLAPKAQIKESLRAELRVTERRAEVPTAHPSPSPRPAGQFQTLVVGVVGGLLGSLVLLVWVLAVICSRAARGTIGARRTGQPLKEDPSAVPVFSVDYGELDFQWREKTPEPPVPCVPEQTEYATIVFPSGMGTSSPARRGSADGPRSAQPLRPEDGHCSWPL

B1: JNJ-63723283 (cetrelimab) (antibody, human IgG4 S228P, kappa, V domains shown)
VH: QVQLVQSGAEVKKPGSSVKVSCKASGGTFSSYAISWVRQAPGQGLEWMGGIIPIFDTANYAQKFQGRVTITADESTSTAYMELSSLRSEDTAVYYCARPGLAAAYDTGSLDYWGQGTLVTVSS
VL: EIVLTQSPATLSLSPGERATLSCRASQSVRSYLAWYQQKPGQAPRLLIYDASNRATGIPARFSGSGSGTDFTLTISSLEPEDFAVYYCQQRNYWPLTFGQGTKVEIKR
notes: IgG4/kappa antibody; also called study drug
binding result: binds
